Here are results for 4 substances from patent publication US7176279.

One experiment has as its target hMC4-R (human) (UniProt P32245). As to the kind of experiment: competition with 125I-NDP-MSH, HEK 293 hMC4-R membranes, 1 µM peptide.
The next experiment has as its target hMC5-R (human) (UniProt P33032). As to the kind of experiment: competition with 125I-NDP-MSH, HEK 293 hMC5-R membranes, 1 µM peptide.
The target in the next experiment is hMC3-R (human) (UniProt P41968). As to the kind of experiment: competition with 125I-NDP-MSH, HEK 293 hMC3-R membranes, 1 µM peptide.
Chain of hMC3-R (human) (P41968 whole entry): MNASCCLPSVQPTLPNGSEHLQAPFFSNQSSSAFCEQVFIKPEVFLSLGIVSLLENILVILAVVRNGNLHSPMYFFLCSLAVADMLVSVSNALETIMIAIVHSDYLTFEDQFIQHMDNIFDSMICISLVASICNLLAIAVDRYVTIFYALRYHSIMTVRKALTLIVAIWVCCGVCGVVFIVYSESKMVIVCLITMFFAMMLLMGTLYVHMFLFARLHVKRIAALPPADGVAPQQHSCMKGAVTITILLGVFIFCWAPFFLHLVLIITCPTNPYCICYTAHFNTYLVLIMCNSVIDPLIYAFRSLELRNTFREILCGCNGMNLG

Chain of hMC4-R (human) (P32245 whole entry): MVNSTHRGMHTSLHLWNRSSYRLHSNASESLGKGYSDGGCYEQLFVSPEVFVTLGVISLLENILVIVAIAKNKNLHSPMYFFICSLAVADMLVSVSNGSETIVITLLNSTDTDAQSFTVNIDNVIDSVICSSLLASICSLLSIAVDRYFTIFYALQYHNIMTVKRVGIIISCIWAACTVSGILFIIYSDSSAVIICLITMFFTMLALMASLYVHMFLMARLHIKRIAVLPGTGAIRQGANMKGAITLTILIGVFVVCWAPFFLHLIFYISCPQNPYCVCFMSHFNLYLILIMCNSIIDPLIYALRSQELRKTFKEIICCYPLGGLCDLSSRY
Chain of hMC5-R (human) (P33032 whole entry): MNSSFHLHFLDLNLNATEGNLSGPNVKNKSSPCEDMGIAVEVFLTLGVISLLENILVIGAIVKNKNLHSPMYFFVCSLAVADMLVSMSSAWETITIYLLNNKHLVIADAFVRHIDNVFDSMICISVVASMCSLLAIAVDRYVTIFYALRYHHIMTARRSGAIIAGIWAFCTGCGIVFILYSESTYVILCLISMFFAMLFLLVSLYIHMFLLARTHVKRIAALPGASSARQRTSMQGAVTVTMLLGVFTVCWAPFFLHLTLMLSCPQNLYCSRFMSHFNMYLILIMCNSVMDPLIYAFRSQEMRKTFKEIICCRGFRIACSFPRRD

On to “Ac-Nle-cyclo(-Asp-His-Phe-Arg-Trp-Lys)-OH (SEQ ID NO:2) (peptide)”, for which the Percent Inhibition At 1 µM concentration in the experiment with hMC4-R (human) amounted to 4%; with hMC5-R (human), 7%. In the same order, the values of “Ac-Nle-cyclo(-Asp-D-His-D-Phe-Arg-Trp-Lys)-OH (peptide)” are 9% and 8%. With “Ac-Nle-cyclo(-Asp-His-D-Phe-Orn-Trp-Lys)-OH (peptide)”, the Percent Inhibition At 1 µM concentration with hMC3-R (human) is 6%.

In the experiment with hMC4-R (human), “Ac-Nle-cyclo(-Asp-His-D-Phe-D-Arg-Trp-Lys)-OH (peptide)” yielded a Percent Inhibition At 1 µM concentration of 4%.
